Assay results reported in patent US20250361297A1, “ANTI- SIGLEC-15 BINDING MOLECULES AND METHODS OF USE” (ADAPTAM THERAPEUTICS, S.L., priority 2024, published 2025).
Substitutions are numbered along the chain they refer to. “Also recorded” adds a separate entry of the source.

Tests used:
human Siglec-15 = target: T1, human Siglec-15 (Homo sapiens, UniProt Q6ZMC9); assay: Blocking of human Siglec-15 binding to Jurkat cells (flow cytometry); details: flow cytometry (FIG. 22)
T1 construct: expressed in transfected cells
T1 sequence (Q6ZMC9 20-328): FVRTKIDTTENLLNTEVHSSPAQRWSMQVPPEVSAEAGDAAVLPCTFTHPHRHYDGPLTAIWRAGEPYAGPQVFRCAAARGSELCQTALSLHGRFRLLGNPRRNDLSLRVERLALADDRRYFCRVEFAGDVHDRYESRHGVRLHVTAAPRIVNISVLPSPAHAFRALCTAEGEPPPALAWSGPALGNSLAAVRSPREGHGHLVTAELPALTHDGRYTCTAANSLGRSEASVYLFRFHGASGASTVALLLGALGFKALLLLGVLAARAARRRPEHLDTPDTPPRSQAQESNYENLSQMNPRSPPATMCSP
Method: Blocking assay (Flow cytometry): Briefly, the anti-Siglec-15 antibodies of the disclosure or controls were diluted with human Siglec-15-human Fc protein (Sinobiologicals, 13976-H02H1), at 66.67 nM, and incubated at room temperature for 40 minutes. Then, Jurkat T cells were harvested from cell culture flasks, washed twice, and re-suspended in PBS containing 2% v/v Bovine serum albumin (FACS buffer). Then, 0.5×10^5 cells per well in 96 well-plates were incubated in 100 μL of the antibody/Siglec-15-human Fc mixtures for 40 minutes at 4° C. The plates were washed twice with FACS buffer, and then added and incubated for 40 minutes at 4° C. in dark with 100 μl/well Goat Anti-human IgG (H+L) (1:200 dilution in FACS buffer, Thermofisher). Cells were washed twice and re-suspended in FACS buffer. Fluorescence was measured in a flow cytometer. Data was analyzed using Flowjo and Graphpad Prism software.

osteoclast activation = assay: Osteoclast activation in vitro (CTX-I in culture medium); type: cell-based; details: relative to baseline; control odanacatib 1 μM (FIG. 47)
Siglec-15 positive cells = assay: Internalization assay (Zenon pHrodo iFL Green); type: cell-based
Method: Internalization assay (Zhenon pHrodo): Sufficient volumes of 4× working solution of anti-Siglec-15 antibodies (10 nM) were prepared in cell culture medium for a total of 25 μL for each well of a 96-well plate. A working solution of Zenon™ pHrodo™ iFL IgG Labeling Reagent was prepared at 30 nM and 25 μL were added to each well. The mix was incubated for 5 minutes at room temperature to allow the labeling complexes to form. 5 mL of suspension cells at 2×10^6 cells/mL in cell culture medium were prepared and 50 μL of cells were added to each well of the 96-well plate containing the mix of anti-Siglec-15 antibody and the Zenon™ labeling reagent. Cells were incubated with the labeling complex for different timepoints (1-24 hours) under standard cell culture conditions. Fluorescence was analyzed by flow cytometry.

[1] = target: T2, mutant version of Siglec-15 (R143A) (Homo sapiens, UniProt Q6ZMC9, R143A); assay: Flow cytometry binding to HEK293T cells expressing mutant Siglec-15 (R143A); details: flow cytometry (FIG. 20, FIG. 21)
T2 construct: expressed in transfected cells; host or cells: HEK293T
T2 sequence (Q6ZMC9 20-328 R143A): T1 sequence (Q6ZMC9 20-328) with R124A
Method: Assessment of the binding of anti-Siglec-15 antibodies to HEK293T cells expressing full length human Siglec-15, or mutant human Siglec-15 (R143A) or the domain 2 of human Siglec-15 by Flow cytometry: Siglec-15+, Siglec-15+R143A, and Siglec-15 Domain 2 (D2) HEK293T cells were detached using tryple and washed once with PBS, resuspended in 1× flow cytometry buffer (PBS with 1% FBS) at approximately 1-2×10^6 cells/mL. Then, anti-Siglec-15 mAbs were added to the cell suspension at the desired concentration, starting at 10 μg/mL and performing 1/3 dilutions. Cells were incubated with the indicated antibodies for 30-60 minutes at 4° C. in the dark to prevent degradation of the fluorescent signal. After the primary antibody incubation, cells were washed twice with PBS or flow cytometry buffer by centrifuging at 300-500× g for 5 minutes and the pellet resuspended in fresh buffer. The following antibody was added: anti-human IgG-PE at a 1:500 dilution. Cells were incubated with the secondary antibody for 30 minutes at 4° C. in the dark. Finally, cells were washed twice with PBS or flow cytometry buffer to remove any excess secondary antibody and acquired in a flow cytometer.

[2] = system: truncated second domain (D2) of Siglec-15; assay: Flow cytometry binding to HEK 293T cells expressing only the truncated second domain (D2) of Siglec-15; set-up: species or system human; details: HEK 293T cells expressing only truncated D2; flow cytometry (FIG. 2B, FIG. 17)
Excerpt: Flow cytometry was used to interrogate the binding of anti-Siglec-15 monoclonal antibodies to cells expressing only a truncated version of Siglec-15 comprising solely of the second domain (D2). This strategy was useful to identify clones that recognize epitopes outside of the canonical sialic acid binding site located in the first domain (D1).
For the ELISA, antigens were immobilized on high-binding plates, and the full-length IgG1 anti-Siglec-15 antibodies were titrated beginning at a concentration of 10 μg/ml. After washing, an anti-human IgG Fab-specific HRP-conjugated secondary antibody was applied for detection. Palivizumab was included as the negative control. Optical densities were measured to generate binding curves from which EC50 values were derived. […] Flow cytometric analysis was conducted, and fluorescence intensity was used to calculate EC50 values, providing a quantitative assessment of the antibodies' cell surface binding efficacy. […] Antibodies were titrated starting at a concentration of 10 μg/ml and detected with an anti-human Fc-specific secondary antibody to detect bound primary antibodies. The half-maximal effective concentration (EC50) was calculated for each antibody to determine its binding affinity to mouse Siglec-15. Results were analyzed and ranked based on the EC50 values. […]

blocking of binding of human Siglec-15 to Jurkat cells (human Siglec-15): approximately 60%
binding to HEK293T cells expressing mutated Siglec-15 (R143A) [1]: demonstrated binding
B1: S15B1: parental mouse anti-Siglec-15 monoclonal antibody from hybridoma; VH SEQ ID NO: 18, VL SEQ ID NO: 19 (antibody, V domains shown)
VH: QVQLQQSGPELVKPGASVKISCKASGYAFSSSWMNWVKQRPGKGLEWIGRIYPGHGETNYNGKFKDKATVTADKSSSTTYMQLSSLTSEDSAVYFCARVDNSDPYYFDYWGQGTTLTVSS
VL: DIVLTQSPASLAVSLGQRATISCRASKSVSTSGYSYMHWYQQKPGQPPKLLIYLASNLESGVPARFSGSGSGTDFTLNIHPVEEEDAATYYCQHGRELPFTFGSGTKLEIK
modifications: Clone S15B1 VH; Clone S15B1 VL
effect on osteoclast activation (CTX-I) (osteoclast activation): did not significantly affect
percentage of cells that internalized the antibody (Siglec-15 positive cells; Zenon pHrodo iFL Green label, 24 hours at 37° C.): 100%
internalization, fold increase over isotype control (Siglec-15 positive cells; kinetics over 1, 2, 4, 16, and 24 hours): approximately 6 fold
binding to D2 of Siglec-15 [2]: displayed binding affinity for D2; also recorded: significant binding to D2
